Reference: patent publication US20220041738A1 (SAITAMA MEDICAL UNIVERSITY, published 2022)

Experiments:
Assay in all cases: immunofluorescence (legend of FIG. 4)
[1] = target: T1, human ALK2-G328E on cells (human, UniProt Q04771 21-509)
T1 sequence: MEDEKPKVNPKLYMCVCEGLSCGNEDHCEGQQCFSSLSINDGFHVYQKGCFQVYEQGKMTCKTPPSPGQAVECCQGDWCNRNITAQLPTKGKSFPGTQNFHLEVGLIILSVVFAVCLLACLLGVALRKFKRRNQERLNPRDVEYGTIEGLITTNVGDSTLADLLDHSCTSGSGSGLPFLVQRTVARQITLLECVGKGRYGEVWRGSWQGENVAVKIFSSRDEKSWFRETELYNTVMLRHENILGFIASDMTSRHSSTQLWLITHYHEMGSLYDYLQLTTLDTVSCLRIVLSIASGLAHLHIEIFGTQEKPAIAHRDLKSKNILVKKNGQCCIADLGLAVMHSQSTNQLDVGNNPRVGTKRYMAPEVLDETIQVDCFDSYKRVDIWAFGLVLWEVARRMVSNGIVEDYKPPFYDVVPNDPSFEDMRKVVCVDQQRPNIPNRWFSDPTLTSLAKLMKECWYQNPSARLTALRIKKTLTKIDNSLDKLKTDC
Protocol: (§1) Mouse C2C12 cells were seeded into a 96-well plate (Greiner Bio-One) at 0.5×10³ cells/well, and cultured in 15% FBS-containing DMEM medium overnight under the conditions of 5% CO₂ at 37° C. On the following day, the C2C12 cells were transfected with each of a wild-type human ALK2 cDNA integrated into pcDEF3; pcDEF3/human ALK2-L196P, pcDEF3/human ALK2-P197_F198delinsL, pcDEF3/human ALK2-R202I, pcDEF3/human ALK2-R206H, pcDEF3/human ALK2-Q207E, pcDEF3/human ALK2-R258S, pcDEF3/human ALK2-G325A, pcDEF3/human ALK2-G328E, pcDEF3/human ALK2-G328R, pcDEF3/human ALK2-G328W, pcDEF3/human ALK2-G356D, and pcDEF3/human ALK2-R375P, which are variants identified in FOP; and pcDEF3 as a control, using Lipofectamine 2000 (Invitrogen), and further cultured overnight.
(§2) The C2C12 cells were fixed with 10% neutral formalin (Nacalai Tesque, Japan) for 20 minutes at room temperature, and then blocked with 10% goat normal serum for 30 minutes. After the blocking agent was removed, purified IgG diluted to 10 μg/mL with the blocking agent was added, and the cells were left for 1 hour at room temperature. After the cells were washed with PBS three times, Goat Alexa 594-conjugated anti-rat IgG (Invitrogen) diluted to 1:1000 with the blocking agent was added, and the cells were left for 1 hour at room temperature. After the cells were washed with PBS three times, the cells were fixed with 10% neutral formalin for 15 minutes at room temperature, and nuclear-stained with DAPI (LifeTechnologies). Fluorescent signals were analyzed with a fluorescence microscope BZ-9000 (Keyence).

[2] = target: T2, human ALK2-G328R on cells (human, UniProt Q04771 21-509)
T2 sequence: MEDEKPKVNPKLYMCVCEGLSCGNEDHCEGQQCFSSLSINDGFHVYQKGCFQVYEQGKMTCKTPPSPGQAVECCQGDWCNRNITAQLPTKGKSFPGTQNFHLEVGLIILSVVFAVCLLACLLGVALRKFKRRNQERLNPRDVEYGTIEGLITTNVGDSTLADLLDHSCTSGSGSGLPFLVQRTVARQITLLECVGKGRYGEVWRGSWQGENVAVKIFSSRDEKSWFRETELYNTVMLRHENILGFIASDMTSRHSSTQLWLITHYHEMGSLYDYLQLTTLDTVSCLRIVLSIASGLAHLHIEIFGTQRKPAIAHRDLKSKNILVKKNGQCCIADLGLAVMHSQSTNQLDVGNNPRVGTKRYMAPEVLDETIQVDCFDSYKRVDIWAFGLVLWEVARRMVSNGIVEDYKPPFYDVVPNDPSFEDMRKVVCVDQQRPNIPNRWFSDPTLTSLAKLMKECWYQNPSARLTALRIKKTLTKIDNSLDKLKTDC
Protocol: as §1, §2

[3] = target: T3, human ALK2-R258S on cells (human, UniProt Q04771 21-509)
T3 sequence: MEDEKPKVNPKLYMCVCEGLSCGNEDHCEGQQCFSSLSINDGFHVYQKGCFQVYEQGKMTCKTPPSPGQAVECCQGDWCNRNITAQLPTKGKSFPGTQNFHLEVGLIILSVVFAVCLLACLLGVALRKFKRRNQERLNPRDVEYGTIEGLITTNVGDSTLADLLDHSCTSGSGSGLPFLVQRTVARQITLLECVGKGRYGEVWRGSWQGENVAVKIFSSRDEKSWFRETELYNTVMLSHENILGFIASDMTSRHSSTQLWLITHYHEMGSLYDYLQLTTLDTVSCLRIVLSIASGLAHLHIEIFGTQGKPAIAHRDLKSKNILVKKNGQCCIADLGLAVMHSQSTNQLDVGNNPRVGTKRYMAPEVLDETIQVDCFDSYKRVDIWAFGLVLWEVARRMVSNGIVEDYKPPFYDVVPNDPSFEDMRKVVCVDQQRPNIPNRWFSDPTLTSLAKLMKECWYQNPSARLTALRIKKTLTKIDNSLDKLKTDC
Protocol: as §1, §2

[4] = target: T4, human ALK2-G328W on cells (human, UniProt Q04771 21-509)
T4 sequence: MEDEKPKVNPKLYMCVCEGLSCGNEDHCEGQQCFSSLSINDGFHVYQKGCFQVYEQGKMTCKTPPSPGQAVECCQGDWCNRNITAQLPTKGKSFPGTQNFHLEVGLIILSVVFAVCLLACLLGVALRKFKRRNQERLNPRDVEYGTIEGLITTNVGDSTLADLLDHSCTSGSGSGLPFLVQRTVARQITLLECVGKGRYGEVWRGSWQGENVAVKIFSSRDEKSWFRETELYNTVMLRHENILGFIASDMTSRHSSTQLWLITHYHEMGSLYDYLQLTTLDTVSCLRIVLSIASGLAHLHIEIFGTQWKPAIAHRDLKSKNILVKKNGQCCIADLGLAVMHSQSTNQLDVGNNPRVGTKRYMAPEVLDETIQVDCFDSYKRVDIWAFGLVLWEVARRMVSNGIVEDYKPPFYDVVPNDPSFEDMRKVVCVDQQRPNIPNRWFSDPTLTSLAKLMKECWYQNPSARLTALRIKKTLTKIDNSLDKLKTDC
Protocol: as §1, §2

Measured: binding result

B1: rat anti-ALK2 monoclonal antibody A2-15A (antibody, V domains shown)
VH: EVQLVESGGGLVQPGRSLKLSCAASGFTFSHYYMAWVRQAPTKGLEWVASITNSGGSINYRDSVKGRFTISRDNAKSTLYLQMDSLRSEDTATYYCTREGGENYGGYPPFAYWGQGTLVTVSS
VL: DIVLTQSPALAVSLGQRATISCRANQGVSLSRYNLMHWYQQKPGQKPKLLIYRSSNLASGIPARFSGSGSGTDFTLTINPVQADDIATYYCQQSRESPFTFGAGTKLELKR
notes: Rat monoclonal IgG from a hybridoma; also called 15A6
binds: all assays above

B2: rat anti-ALK2 monoclonal antibody A2-11E (antibody, V domains shown)
VH: EVQLVETGGGLVQPGRSLKLSCVASGFTFSNYYMYWIRQAPGKGLEWISSINTDGGSTYYPDSVKGRFAISRDNAENTVYLQMNSLRSEDTATYYCAKSTPNIPLAYWGQGTLVTVSS
VL: DIQMTQSPSLLSASVGDRVTLSCKASQNIYKYLNWFQQKLGEAPKLLIYYSNSLQTGIPSRFSGSGSGTDFTLTISSLQPEDVAIYFCFQYSSGPTFGPGTKLELKR
notes: Rat monoclonal IgG from a hybridoma; also called 11E2
binds: all assays above
